Results taken from the supplement of paper PMC9170038.

Tested on: MS2 coat protein
Test: apparent KD of MS2 coat protein; designed switch direction (-1 OFF switch, 1 ON switch): -1; higher = weaker reporter binding
How it was run: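 An oligonucleotide input, 200 uM small-molecule ligand, or no input was present during titration of SNAP-549-labelled MS2 coat protein, which was doubled from 0.7 or 1.5 nM to 3 µM. Designed RNA switches had been transcribed on Illumina chips by stalled E. coli RNA polymerase. Apparent KD per design is the median over clusters of curves fitted to normalised cluster fluorescence.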

[1] = Eterna round: R95, input ligand: FMN 200 uM
[2] = Eterna round: R95, input ligand: microRNA oligo, concentration not stated
[3] = Eterna round: R95, input ligand: none
[4] = input ligand: microRNA oligo, concentration not stated

## UAGAAGGUAGGAUAUACGAAUAAAUAGGGUAGGAAGAAGACACAUGAGGAUCACCCAUGUAGAAGGACCAAGAU [Mat - Exclusion 2 - Mod of my Tesla design - D34] (puzzle: Exclusion 2)
[1]
  apparent KD of MS2 coat protein: 36.6 nM
[2]
  apparent KD of MS2 coat protein: 17.5 nM
[3]
  apparent KD of MS2 coat protein: 18.5 nM

## UUGUUGUAUGUAGGAUAUGCGUGUUAUUAUUAUGCAGAAGGACAUGAGGAUCACCCAUGUAUAUUAUUAUUAUAUGUUAUAUAU [Title] (Eterna round: R96, puzzle: Exclusion NG 1)
[4]
  apparent KD of MS2 coat protein: 17.6 nM

## UAUUAGCAAGCGAGAUCCCACAUGAGGAUCACCCAUGUGCUCGUCUUAUAAAGUACUGUGACGAAAGUCACGGUACU [Mat - Sensor, turn-off var - Eli Mod - D7] (Eterna round: R97, puzzle: Sensor, turn-off variant 1)
Input ligand: FMN 200 uM
  apparent KD of MS2 coat protein: 15.2 nM
Input ligand: none
  apparent KD of MS2 coat protein: 14.6 nM

## AAGUACCGUCACGAUAGUGAUGGUACAGCAAGUAGUGAAACAUGAGGAUCACCCAUGUCCUCAAUUGCUCGUCUUAU [Sensor 3 - 82] (puzzle: Sensor v3, turn-off variant 2)
[1]
  apparent KD of MS2 coat protein: 110 nM
[2]
  apparent KD of MS2 coat protein: 171 nM
[3]
  apparent KD of MS2 coat protein: 115 nM

## GGAAGCAAGGAAUAACUAAACAUGAGGAUCACCCAUGUAGAGCCCAUGUGCACGCAAAGCGUGCAAGCUCGUCUUAU [AK-miRNA-r3-17] (Eterna round: R97, puzzle: Sensor, turn-off variant 1)
Input ligand: FMN 200 uM
  apparent KD of MS2 coat protein: 64.4 nM
Input ligand: none
  apparent KD of MS2 coat protein: 80.8 nM

## CUCAUGUUGGAGGAUAUAUUUGUCAACCGACCGAUAGAAGGCCACACAUGAGGAUCACCCAUGUCAUCCGGAGA [Eternabot (Original) Solution 50] (Eterna round: R97, puzzle: Exclusion 6)
Input ligand: FMN 200 uM
  apparent KD of MS2 coat protein: 28.3 nM
Input ligand: none
  apparent KD of MS2 coat protein: 255 nM

## UUAGAUUAUUGAGGAUAUGGAUAUUUUUAUUAACCAGAAGGCAAACUCAACAUGAGGAUCACCCAUGUAUAAAGGGUAUUAGUU [JR_ExcNG1_Sub098] (Eterna round: R96, puzzle: Exclusion NG 1)
[4]
  apparent KD of MS2 coat protein: 71.2 nM

## AUACAGGAAGGAUAUACAUGAGGAUCACCCAUGUAGGAAAACCUACCAAAAGACCCAAGUAGAAGGUCCGAUAC [jl-ex3-4.74 ViennaUCT mod] (Eterna round: R97, puzzle: Exclusion 3)
Input ligand: FMN 200 uM
  apparent KD of MS2 coat protein: 21.8 nM
Input ligand: none
  apparent KD of MS2 coat protein: 19.4 nM

## GCAGUGACAUGAGGAUCACCCAUGUGGAACUCGUGAAUAAGCGAGGAUAUCUCAAGAUAUCAAAGAGAGAAGGCGUACACUGCA [Diorso] (Eterna round: R96, puzzle: Exclusion NG 3)
Input ligand: FMN 200 uM
  apparent KD of MS2 coat protein: 731 nM
[4]
  apparent KD of MS2 coat protein: 159 nM
Input ligand: none
  apparent KD of MS2 coat protein: 229 nM

## UGUUGUCGCGCAGGAUAUGGCCAACAGGCCCUAGGAUAUCCGAAAGGAGAAGGAGCGCCAACAGGCGAGAAGGGCGGGACAACU [pwkr exNG2 2xF7 2xFMN.16] (Eterna round: R96, puzzle: Exclusion NG 2)
Input ligand: FMN 200 uM
  apparent KD of MS2 coat protein: 19.5 nM
[4]
  apparent KD of MS2 coat protein: 4.03 nM
Input ligand: none
  apparent KD of MS2 coat protein: 29.7 nM

## GAUCAUGCAGGAUAUACAGUAACCAUGAAAACAUGGUUGCUACAUGAGGAUCACCCAUGUAGAAGGGCAUGAUC [Omei Ex2 A2] (Eterna round: R97, puzzle: Exclusion 2)
Input ligand: FMN 200 uM
  apparent KD of MS2 coat protein: 17.9 nM
Input ligand: none
  apparent KD of MS2 coat protein: 16.9 nM

## CGAUAAAGCUGAGGAUAUGAGAAUAGAAAGAAAUCAGAAGGCAGACAUGAGGAUCACCCAUGUGAGUUCUCGAGAUUAGAUAUU [Prohibition 47 - Jieux - Exclusion NG 1] (Eterna round: R96, puzzle: Exclusion NG 1)
[4]
  apparent KD of MS2 coat protein: 22.2 nM

## UUUAAUUUUUUUUUUUUACAAGCUUUUUGCUCGUCUUAUACAUGAGGAUCACCCAUGUGGGUAAAGGAUAAAUUAUC [JMF 25] (puzzle: Sensor v3, turn-off variant 2)
[1]
  apparent KD of MS2 coat protein: 31.6 nM
[2]
  apparent KD of MS2 coat protein: 39.1 nM
[3]
  apparent KD of MS2 coat protein: 34.1 nM

## UGUACUAUGCGUGCUGACAUGCGUAGUGCAGCAGGUGUUACAUGAGGAUCACCCAUGUCCUCAUUUGCUCGUCUUAU [SL-sv3-2.07 JL mod] (puzzle: Sensor v3, turn-off variant 2)
[1]
  apparent KD of MS2 coat protein: 189 nM
[2]
  apparent KD of MS2 coat protein: 200 nM
[3]
  apparent KD of MS2 coat protein: 215 nM

## UUAUUGUUAGAGGAUAUAUUAAGGUAUGCUUUGAUAGAAGGCUAUACAUGAGGAUCACCCAUGUUUUUUGGGAU [JR_Ex6_Sub076] (Eterna round: R97, puzzle: Exclusion 6)
Input ligand: FMN 200 uM
  apparent KD of MS2 coat protein: 654 nM
Input ligand: none
  apparent KD of MS2 coat protein: 328 nM

## GAUUAUGCGAGCUUUAGGGACAUGAGGAUCACCCAUGUUCGUCUUAUUAAUCUGGGUACACUGACAUACCUAAAUCU [JMF 69] (puzzle: Sensor v3, turn-off variant 1)
[1]
  apparent KD of MS2 coat protein: 32.1 nM
[2]
  apparent KD of MS2 coat protein: 48.4 nM
[3]
  apparent KD of MS2 coat protein: 33.9 nM

## UGAAAGUGAGGAUAUCCAAUAUAUGACAUGAGGAUCACCCAUGUUUCCACUCGUACCUCCGGAGAAGGCACAAAGU [Ex5 #58] (Eterna round: R97, puzzle: Exclusion 5)
Input ligand: FMN 200 uM
  apparent KD of MS2 coat protein: 26.2 nM
Input ligand: none
  apparent KD of MS2 coat protein: 28.8 nM

## UUUUUUGUUGUGAGGAUAUCGUAGUUAUUUUGUUACGAGAAGGCACAUGAGGAUCACCCAUGUUUUUUGAUGUU [JR_BMOE4_Sub064] (puzzle: Brourd's mod of Exclusion 4)
[2]
  apparent KD of MS2 coat protein: 25.4 nM

## CUGUCCCAAGGAUAUACAUCAGUCCCAGGGUGCCGCAUAAGACAUGAGGAUCACCCAUGUAGAAGGUGGAGACC [Esaranre] (puzzle: Exclusion 2)
[2]
  apparent KD of MS2 coat protein: 82.1 nM

## AAACAGGGAGGAUAUACAUAGAUCGUCUAACCUAAUUGGUCACAUGAGGAUCACCCAUGUAGAAGGCCCUUAGG [Tiisdixe] (puzzle: Exclusion 2)
[2]
  apparent KD of MS2 coat protein: 22.2 nM

## UAUAAUCGAGGAUAUACAUGAGGAUCACCCAUGUGUUGCCGCGUGACAUGAUCGUCAGGUAGAAGGCGAUUAUA [Exclusion 3 - Mod of Jieux's Gilly Gone Silly 23 v.10] (puzzle: Exclusion 3)
[2]
  apparent KD of MS2 coat protein: 147 nM

## AAGUAGUGUGUGAGGAUAUUGGUGGAAUGACAUAUUAAGAAGGCACAUGAGGAUCACCCAUGUGGGUUGACACG [Brourd's EX4 #19] (Eterna round: R97, puzzle: Brourd's mod of Exclusion 4)
Input ligand: FMN 200 uM
  apparent KD of MS2 coat protein: 269 nM
Input ligand: none
  apparent KD of MS2 coat protein: 98.4 nM

## CAUGGCACGUAGGAUAUCUCGCAGCCCGGCUGCAGAGAAGGACGUACAUGAGGAUCACCCAUGUAUGAUCCAAA [Laquus] (puzzle: Exclusion 6)
[2]
  apparent KD of MS2 coat protein: 24.1 nM

## UUUUACAAGCUAAGAUCCUACAUGAGGAUCACCCAUGUGGUCCGGUGACGUGAGUCACCGGACUUAGCUCGUCUUGU [JL TOV1 3.70] (Eterna round: R97, puzzle: Sensor, turn-off variant 1)
Input ligand: FMN 200 uM
  apparent KD of MS2 coat protein: 80.3 nM
Input ligand: none
  apparent KD of MS2 coat protein: 88.2 nM

## UUAUUGUGAGGAUAUCAGGUGUGCUAGCGUACUGGUACAUCUGAGAAGGCACAUGAGGAUCACCCAUGUUUCUU [JL-ex4-3.22 Brourd mod] (puzzle: Exclusion 4)
[2]
  apparent KD of MS2 coat protein: 21.1 nM

## AAAUCGGUAGAGGAUAUUGUACAGGAAACGGUGCAAGAAGGUUACACAUGAGGAUCACCCAUGUUAAAUUGCGA [EX6 #52] (Eterna round: R97, puzzle: Exclusion 6)
Input ligand: FMN 200 uM
  apparent KD of MS2 coat protein: 21.4 nM
Input ligand: none
  apparent KD of MS2 coat protein: 17.3 nM

## UUAAUAAGUGUGAGGAUAUGCUGGUCCUUGGAUCAGCAGAAGGCACAUGAGGAUCACCCAUGUACAAUAUAUUA [Mat - Exclusion 4 - JL Mod - D31] (puzzle: Brourd's mod of Exclusion 4)
[2]
  apparent KD of MS2 coat protein: 33.9 nM
